# Experiment: soluble on expression in E. coli; label from the status in PepcDB or PDB records
row,Sequence,soluble on expression in E. coli
1,MDLRRFITLKTVVEEGSFLRASQKLCCTQSTVTFHIQQLEQEFSVQLFEKIGRRMCLTREGKKLLPHIYELTRVMDTLREAAKKESDPDGELRVVSGETLLSYRMPQVLQRFRQRAPKVRLSLQSLNCYVIRDALLNDEADVGVFYRVGNDDALNRRELGEQSLVLVASPQIADVDFTEPGRHNACSFIINEPQCVFRQIFESTLRQRRITVENTIELISIESIKRCVAANIGVSYLPRFAVAKELECGELIELPFGEQSQTITAMCAHHAGKAVSPAMHTFIQCVEESFVAG,soluble
2,MSLTEFWNSFSNLFTGGRSTNRKIILVLLIMVLSSGVCSADNYVGGIPLTSAHSGTVSGGVYCDSYYGMGDQEAKASNTIEKTFTVPDNANVEWAMLLTNVYCGHMQNNYQGKAKVDFNGKNLGTETLNVPYTYSYNGGNGHVQVNDHVNRVTSDYMMYYDVTGLVKAGKNTAVVKTDPLDSSFDGRIRLVTLVVAYNDGSKKTIWYQVNRGHDADSYYSDDEMNENYIGSTAFQAALPEGSSLTDSKLTLVYQASSDGAYAFNGNALSSGTPQGTFSGSNTWDVKDSLKSSGTNTLTYDRTASFYKSVLGILTAEYTTSSSGDSTDDTPADNEGHHHHHH,soluble
3,MSRIHTLTMPKWGLSMTEGRVDAWLKEEGAHIEKGDEVLDVETDKISSSVEAPFSGVLRRKVAREDETLAVGALLGVVVEGEASDEEIDALVQRFQAEFVPADEDAGDSGPAPRKVELDGRLLRYFDRGEGDPALLLIHGFGGDLNNWLFNHEALAAERRVIALDLPGHGESGKALVRGDLDELSGSVLALLDHLDLEQVHLAGHSMGGAVALNCARLAPQRVLSLSLIGSAGLGEEINGDYLRGFVEAANRNALKPQLVQLFSDPALVTRQMLEDMLRYKRLEGVDAALRQLLDNLFADGRQRNDLRAVANEGRQPVLAIWGSDDAIIPARHAEGLPAQVEIIPGQAHMVQMEAAEQVNRLLLDFLRQH,not soluble
4,MTAKTLIVLIGPTGVGKTELSLRIAEYFKTSIISSDSRQLYAELKIGTAAPTPEQLKRVPHYFVGTLQLTDYYSAAQYETEVMSVLEQLFQQHHVVLLTGGSMMYVDAICKGIDDIPTVDAETRELLLHKYDTEGLDNLCAELKLLDPEYYKIVDLKNPKRVIHALEICYMTGKTYTSFRTQQKKERPFHILKIGLTRDRAELYDRINRRVDQMMDEGLLEEARSVYAHRELNSLNTVGYKEIFKYLDGEWDLDFAIEKIKQNSRIYSRKQMTWFKRDEEIRWFHPEQEKEILSYLQASIKLEHHHHHH,soluble
5,MGSDKIHHHHHHMVTFSIRIISSDRIFLVAEVKALERVYVIGHKNPDTDSVCSAIGYAHFKNNVEKGKTFIPARSGDLTNESLFVLKYFGMNPPLHIETLEPTVEDLELKNPIFVTPDTSAYDVAMLMESRGIKNVPVVSKEKMIGVVTESNIARVYVRRLKIEPLVIHPVPFDQLVRILKAEVVCDYMKEKTVSGKVHIAVDALHVLLGKIEIGDVVIVGDNEPAQIALLEKGAKLMIVVNNAPVSNRVLEIAKEKNAAVLRVKFDAFSAAKLINLSLPVTLVMSKKFPTVTKKDTLEEVKEIVFTSKIRAAFVEDEKGRLCGVITRTDLLKDVRKKVILVDHNEITQAPEGVEKAEILEIIDHHRLGGLSTLNPVFFYNEPVGSTSTIVAEFFLKNGVKMEREIAGILLSGIVSDTLFFKLSTTTEKDRKMANFLADVAKLDLEKFAKKLLKEGMKIPEDVDPAELLKRDVKVYEMGEESFAVSQIMTSDFSTLLKEKERFMNTLKTLKGEFGVKHFFVLFTNPVEEASLLMMDGDQKLVEKAFNAEKKDGLFLLKGVMSRKKDFVPKIGEVLRRER,not soluble
6,MKVYLHFSPQFFANTYLIGNEITKEAVIIDPAKITEKMIHQIEKNEFNLKAVLLTHDLEHPYETGLNTILKIYSPKVYAGSCFSENVTINTLRGDGCIDVAGYSVRYFAIPAHSSYSYMFQIENMVFTGTSLSAGMIGQTSNMYAERTLRNILKTKLMCFEDNLIIMPFYGPPTSIGVERKYNASFFQDLEHHHHHH,not soluble
7,MGSDKIHHHHHHMYRKDLDHYLKQRLPKAVFLYGEFDFFIHYYIQTISALFKCDNPDIETSLFYASDYEKSQIATLLEQDSLFGGSSLVVLKLDFALHKKFKENDINLFLKALERPSHNRLIIGLYNAKSDTTKYKYTSDAIVKFFQKSPLKDEAICARFFIPKTWESLKFLQERANFLHLDISGHLLNALFEINNEDLGVSFNDLDKLAVLNAPITLEDIQELSSNAGDMDLQKLILGLFLKKSALDIYDYLLKEGKKDADILRGLERYFYQLFLFFAHIKTTGLMDAKEVLGYAPPKEIAENYAKNALRLKEAGYKRVFEIFRLWHIQSMQGQKELGFLYLTSIQKIINP,not soluble
